Measured values taken from patent publication US7919580B2, “Polysaccharide-protein binding model and nano-fibril formation of a starch binding domain” (priority 2008, dated 2011).
Positions count from the first letter of the chain named. Names may count otherwise.

Legend:
RoGACBM21 = target: T1, RoGACBM21 (Rhizopus oryzae, UniProt P07683); conditions: reported binding assay results; read-out: Kd (binding affinity) of soluble ligand with RoGACBM21; cited from earlier work
T1 construct: the recombinant SBD of 108 amino acid residues; 6xHis (C); made in house; host or cells: E. coli BL21-Gold (DE3), pET23a(+)

[1] = starch; fold higher than AnGACBM20; cited from earlier work
[2] = Starch binding isotherm (saturation binding assay); conditions: insoluble starch, 50 mM sodium acetate pH 5.5, 25° C., 16 h
Experimental: The starch binding isotherm was analyzed as a saturation binding assay as reported. Wild-type and mutant RoGACBM21 derivatives (100 μL, in 50 mM sodium acetate, pH 5.5) were mixed with 0.1 mg of prewashed insoluble starch and incubated at 25° C. with gentle stirring for 16 h. After centrifugation at 16,000×g for 10 min at 4° C., the protein concentration of the supernatant (unbound protein) was determined by BCA assay, and the amount of bound protein was calculated from the difference between the initial and unbound protein concentrations. The Kd and Bmax values were determined by fitting to the non-linear regression of the binding isotherms using a standard single-site binding model.

[3] = Thioflavin T fluorescence (ThT) assay for fibril formation; format: physicochemical; conditions: SBD sample heated at 97° C.
Experimental: Purified SBDs or synthetic peptides were dissolved in 10 mM sodium-citrate or phosphate-citrate buffer to a final concentration of 100 μM (at indicated pH). […] The measurements were recorded in a Perkin Elmer LS-55 spectrofluorometer at 25° C.
The relative fluorescence, peaked at 482 nm, subtracted from the background of buffer from the total fluorescence were measured as the amount of fibrillar aggregates with the excitation wavelength (slit width=4 nm) set at 450 nm and monitoring emission wavelength (slit width=8 nm) set at from 470 to 630 nm.

[4] = Circular dichroism spectroscopy and thermal unfolding; format: physicochemical; conditions: far-UV CD at 215 nm; for β-sheet signals upon heating: ascending temperature
Experimental: (A) CD spectra were collected from 200 to 260 nm at 25° C. at a concentration of 50 μM in 10 mM sodium acetate buffer (pH 4.5). (B) Thermal unfolding of SBD was measured by monitoring changes in the far-UV CD spectra at 215 nm. (C) CD spectra of SBD were recorded between 200 and 260 nm at various temperatures
CD spectra and thermostabilities were recorded in a 0.1-cm cuvette using an Aviv model 202 CD Spectrometer. Data collection and calculation were carried out as previously described.

[5] = Fluorescence spectrophotometry of binding to βCD; conditions: intrinsic protein fluorescence, 50 mM sodium acetate pH 5.5, 25° C.; read-out: β-cyclodextrin Kd
Experimental: Fluorescence spectrophotometry of the binding of wild-type or mutant RoGACBM21 to βCD was recorded by measuring changes in the intrinsic protein fluorescence intensity. Experiments were performed in 50 mM sodium acetate, pH 5.5, at 25° C. using a PerkinElmer LS-55 spectrophotometer. Circular and linear carbohydrates (2 to 20 mM) were titrated into RoGACBM21 (1 μM, 2 mL), and the fluorescence-emission spectrum was monitored at 350 nm with a fixed excitation at 280 nm. The relative changes in fluorescence intensity were plotted against ligand concentration, and the data were fitted to a simulated curve using the appropriate equation for a single binding site.

[6] = Sedimentation velocity ultracentrifugation; format: physicochemical
Experimental: The sedimentation velocity studies were performed at 50,000 rpm for 30 μM (solid line) and 60 μM (dotted line) SBD, and absorbance scans were recorded at 280 nm.

Molecule: OC[C@H]1O[C@@H]2O[C@H]3[C@H](O)[C@@H](O)[C@@H](O[C@H]4[C@H](O)[C@@H](O)[C@@H](O[C@H]5[C@H](O)[C@@H](O)[C@@H](O[C@H]6[C@H](O)[C@@H](O)[C@@H](O[C@H]7[C@H](O)[C@@H](O)[C@@H](O[C@H]8[C@H](O)[C@@H](O)[C@@H](O[C@H]1[C@H](O)[C@H]2O)O[C@@H]8CO)O[C@@H]7CO)O[C@@H]6CO)O[C@@H]5CO)O[C@@H]4CO)O[C@@H]3CO [βCD, β-cyclodextrin]
- Kd (RoGACBM21): ~5 µM

Molecule: maltoheptaose [G7]
- Kd (RoGACBM21): ~5 µM

B1: WT: recombinant starch-binding domain (family 21 carbohydrate binding module) of Rhizopus oryzae glucoamylase, 108 amino acid residues (protein, listed as Rhizopus oryzae)
chain: ASIPSSASVQLDSYNYDGSTFSGKIYVKNIAYSKKVTVVYADGSDNWNNNGNIIAASFSGPISGSNYEYWTFSASVKGIKEFYIKYEVSGKTYYDNNNSANYQVSTSK
modifications: DOMAIN (1)..(108)
- maximal amount of bound protein (Bmax) relative to AnGACBM20 [1]: 40-70 fold
- Kd [2]: 1.4 ± 0.1 µM
- Starch Bmax [2]: 41.1 ± 1.1 µmol/g
- increase in ThT fluorescence emission intensity at 482 nm [3]: 9 fold
- apparent temperature for unfolding [4]: approximately 65 °C
- Kd [5]: 5.1 ± 0.7 µM
- s20 (sedimentation coefficient) ([6]; 30 μM, 50,000 rpm): 1.3 S
- oligomeric state in solution ([6]; high concentration (60 μM)): oligomeric forms of SBD appeared
- oligomeric state in solution ([6]; low concentration (30 μM)): mainly as a single monomeric species

B2: SBD (K108D): SBD mutant K108D (protein)
chain: B1 chain with K108D
modifications: Modified SBD.
- β-sheet signals upon heating [4]: diminished the β-sheet signals upon heating

B3: SBD (K108R): SBD mutant K108R (protein)
chain: B1 chain with K108R
modifications: Modified SBD.
- β-sheet signals upon heating [4]: still showed strong β-sheet signals upon heating

B4: SBD (K108H): SBD mutant K108H (protein)
chain: B1 chain with K108H
modifications: Modified SBD.
- β-sheet signals upon heating [4]: still showed strong β-sheet signals upon heating
